The assay deals with human GGTase-I (LgBiT-GGTase-I-β-subunit with co-transfected untagged FTase α-subunit) (human, UniProt P53609-1 2-377; P49354-1 1-379). Description: split reporter (BiFC, NanoBiT); living HEK293 cells stably expressing the human A2BAR, transient co-transfection (50 ng DNA/well of each LgBiT and SmBiT plasmid, 100 ng/well untagged FTase α, ΔCQLL 50–200 ng/well); NanoGlo live-cell substrate 24 h after transfection, luminescence at 25 °C every 30 s, maxima plotted as RLU; also after treatment with vehicle (DMSO), adenosine, NECA, BAY60-6583, CGS-21680, forskolin, …. The following applies: partners not purified.

B1: SmBiT-Rap1B ΔCQLL (domain or fragment)
chain: REYKLVVLGSGGVGKSALTVQFVQGIFVEKYDPTIEDSYRKQVEVDAQQCMLEILDTAGTEQFTAMRDLYMKNGQGFALVYSITAQSTFNDLQDLREQILRVKDTDDVPMILVGNKCDLEDERVVGKEQGQNLARQWNNCAFLESSAKSKINVNEIFYDLVRQINRKTPVPGKARKKSS
notes: human Rap1B lacking the C-terminal CAAX motif CQLL (from C181 to the end); the forward primer begins at codon 2, the reverse primer ends with Lys-Lys-Ser-Ser and a stop codon; Expression about 5-fold lower than SmBiT-Rap1B WT by Western blot; Glycine/serine linker and Ala-Ile-Ala between SmBiT and Rap1B; also called complete CAAX motif deletion mutant; source: HEK293 stably expressing the human …
Take B1: the “fold lower luminescence than with Rap1B WT (50 ng DNA/well each)” value was roughly 20 fold and the “fold lower luminescence than with Rap1B WT (ΔCQLL 200 ng DNA/well, WT 50 ng DNA/well)” value is roughly 10 fold.

The values are drawn from paper PMC7958859, “Molecular and Pharmacological Characterization of the Interaction between Human Geranylgeranyltransferase Type I and Ras-Related Protein Rap1B” (International Journal of Molecular Sciences, 2021).
